Laboratory results from patent US20230044661A1, “VIABLE TISSSUE FORMS AND METHODS FOR MAKING AND USING SAME” (Musculoskeletal Transplant Foundation, priority 2019, published 2023).

Tests used:
[1] = tested on: peripheral blood mononuclear cells (PBMCs); experiment: One-way mixed lymphocyte reaction (MLR); assay type: cell-based, human; conditions: for Proliferated cells (% of all CPD stained), Average: 60 mg tissue, 250K cells, 5 days; for Stimulation Index: vs PBMCs + saline
Description: (§1) Cancellous and cortical bone tissue samples were obtained, processed and combined, to produce LyoGraft Bone Grafts. From each donor, cancellous tissue samples comprising cancellous bone were recovered and processed to provide cancellous granules, and cortical bone tissue samples were recovered and processed to provide cortical fibers. Quantities of cancellous granules and cortical fibers derived from the same donor were measured and combined to produce three test samples per donor, each of which contained about 40 wt % cancellous granules and about 60 wt % cortical fibers, the wt % being based on the total weight of the combined cancellous granules and cortical fibers of each sample. The total weights of the test samples (i.e., each comprising both cancellous granules and cortical fibers) ranged from 1.3 g to 1.6 g. The test samples were preserved after contact with protectants in solution, in accordance with the methods described hereinabove. Peripheral blood mononuclear cells (PBMCs) were procured from three unique blood donors in order to test for a one-way and two-war mixed lymphocyte reaction (MLR) assay. In a one-way set up, PBMCs are exposed to a test article, the lyopreserved tissue samples, and PBMC stimulation or lack thereof is assessed. In a two-way set up, mismatched blood donors are exposed to one another, and an ongoing reaction is stimulated. This ongoing reaction is then put in presence of a test article, the lyopreserved tissue samples, and stimulation or inhibition of this ongoing reaction are assessed. […] Two-way MLR testing was performed on three lyopreserved donor lots to assess the inhibitory or stimulatory effects of an ongoing/developing immunogenic reaction between two mismatched blood donors.
• 11. Blood was obtained from three unique donors and PBMCs were isolated. • 12. PBMCs were stained with a tracking dye, CPD-670, and added to 96-well round bottom culture plates for one-way MLR assay. • 12.1 This dye is used to determine whether or not an immune response has been induced. If there is an immune reaction, cells will proliferate in response to a stimulator, in this case lyopreserved tissue, and dilute the CPD-670 stain. The dilution of the stain decreases the fluorescence signal which will be used to measure any differences across test samples compared to the saline negative control and concanavalin A positive control. • 13. Lyopreserved samples are prepared by adding 30 mL of sterile saline USP to smaller units (Donor 1 and 3) or filling 2 oz jar to the top (60 mL) with saline for larger units (Donor 2), incubating for 2 mins, decanting, and tap-drying with sterile gauze. • 14. 60 mg of lyopreserved tissue per donor and 20 uL of saline were added in tripliciate for each PBMC donor in 96 well plates. • 14.1 Saline is used as a negative control. • 15. PBMCs were added to each test group (250K cells) and incubated for 5 days at 37° C. in 5% CO2 in humidifier incubator. • 16. To calculate % proliferation, cells with decreased dye fluorescent signal were compared to the total number of positively stained cells. • 17. Concanavalin A (ConA) was used as a stimulation positive control to ensure that cells (PBMC) were in good condition to proliferate. • 18. Stimulation Index (SI) was calculated as proliferating cell percentage from wells with PBMCs+lyopreserved tissue sample divided by proliferating cell percentage from PBMCs+saline.

[2] = tested on: mismatched peripheral blood mononuclear cells (PBMCs); experiment: Two-way mixed lymphocyte reaction (MLR); assay type: cell-based, human; conditions: for Stimulation Index: vs same MLR + saline
Description: as §1
• 19. Cells (PBMC) from each of two donors were added to wells of 96-well round bottom culture plates. • 20. Only cells from one of the two donors were stained with tracking dye, CPD-670, considered the responder cells. The other donor cells were left unstained, considered the inducer cells. • 21. Assay was repeated using 3 different combinations of responder/inducer cells. • 22. The amount of proliferating responder cells indicates an immune reaction induced by the mismatched inducer cells and is shown as cells with reduced dye content after six days of co-incubation. • 23. Virtuos samples are prepared by adding 30 mL of sterile saline USP to smaller units (Donor 1 and 3) or filling 2 oz jar to the top (60 mL) with saline for larger units (Donor 2), incubating for 2 mins, decanting, and tap-drying with sterile gauze. • 24. 60 mg of lyopreserved tissue per donor and 20 uL of saline were added in triplicate for each PBMC donor in 96 well plates. • 24.1 Saline is used as a negative control. • 25. PBMCs from two mismatched blood donors were added to each test group (250K cells per blood donor) and incubated for 5 days at 37° C. in 5% CO2 in humidifier incubator. • 26. Concanavalin A (ConA) was used as a stimulation positive control to ensure that cells (PBMC) were in good condition to proliferate. • 27. Stimulation Index (SI) was calculated as proliferating cell percentage from wells with two mismatched donors with lyopreserved tissue divided by proliferating cell percentage from wells with the same mismatched donor cells treated with saline.

[3] = Donor A-CPD + Donor B-Unstained MLR
[4] = Donor B-CPD + Donor C-Unstained MLR
[5] = Donor C-CPD + Donor A-Unstained MLR

Substance: Concanavalin A [ConA]
- Proliferated cells (% of all CPD stained), Average ([1]; PBMC Donor A): 45.2%
- Stimulation Index ([1]; PBMC Donor A): 28.0
- Proliferated cells (% of all CPD stained), Average ([1]; PBMC Donor B): 61.5%
- Stimulation Index ([1]; PBMC Donor B): 100.3
- Proliferated cells (% of all CPD stained), Average ([1]; PBMC Donor C): 60.6%
- Stimulation Index ([1]; PBMC Donor C): 155.4
- Proliferated cells (% of all CPD stained), Average [2, 3]: 57.8%
- Stimulation Index [2, 3]: 8.1
- Proliferated cells (% of all CPD stained), Average [2, 4]: 39.5%
- Stimulation Index [2, 4]: 5.3
- Proliferated cells (% of all CPD stained), Average [2, 5]: 50.6%
- Stimulation Index [2, 5]: 4.9
